Substitutions are numbered along the chain they refer to. Names may count otherwise.

To fix the notation:
T1: Human ALPP (leucine zipper) (human)
T1 construct: Soluble human ALPP fused to a disulphide stabilised leucine zipper and a His tag; The whole entry is the construct; also called hALPP; PLAP
T1 chain: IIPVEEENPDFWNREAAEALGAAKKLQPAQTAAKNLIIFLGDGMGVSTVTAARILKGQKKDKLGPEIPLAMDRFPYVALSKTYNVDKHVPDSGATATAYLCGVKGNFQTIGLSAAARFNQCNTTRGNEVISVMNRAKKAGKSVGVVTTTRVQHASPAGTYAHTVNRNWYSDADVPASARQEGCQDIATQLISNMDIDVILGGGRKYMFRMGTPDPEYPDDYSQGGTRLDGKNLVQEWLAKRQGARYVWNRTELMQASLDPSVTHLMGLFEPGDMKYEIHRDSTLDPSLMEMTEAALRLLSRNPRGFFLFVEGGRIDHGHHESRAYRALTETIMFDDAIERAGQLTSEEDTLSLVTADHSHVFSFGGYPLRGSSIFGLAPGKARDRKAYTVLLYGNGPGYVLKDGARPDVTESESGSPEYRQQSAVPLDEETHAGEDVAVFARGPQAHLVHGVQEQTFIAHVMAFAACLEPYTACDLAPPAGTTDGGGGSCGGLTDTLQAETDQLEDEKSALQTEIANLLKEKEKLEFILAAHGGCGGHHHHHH

B1: D10 A06-hFc (S239C + S442C), [G4S]1 linkers (Fc fusion)
chain 1: QVQLVESGGGLVQPGGSLRLSCAASGSIFSVNTMGWYRQAPGKQRDLVAVATSGGTIHYADSVKGRFTISRDNAKNTVYLQMNSLKPEDTAVYYCNLVVPYGMIAGDHDYWGQGTKVTVSSGGGGSEPKSSDKTHTCPPCPAPELLGGPCVFLFPPKPKDTLMISRTPEVTCVVVDVSHEDPEVKFNWYVDGVEVHNAKTKPREEQYNSTYRVVSVLTVLHQDWLNGKEYKCKVSNKALPAPIEKTISKAKGQPREPQVYTLPPSRDELTKNQVSLYCLVKGFYPSDIAVEWESNGQPENNYKTTPPVLDSDGSFFLYSKLTVDKSRWQQGNVFSCSVMHEALHNHYTQKSLCLSPGK
chain 2: QVHLVESGGGLVQAGGSLRLSCAASGRTFLSMGWFRQAPGKEREFVAAISWTGGSTGYADSVKGRFTISRESDKETMYLQMNSLKPEDTAVYYCAARGDVYYGGDDATRYKYWGQGTQVTVSSGGGGSEPKSSDKTHTCPPCPAPELLGGPCVFLFPPKPKDTLMISRTPEVTCVVVDVSHEDPEVKFNWYVDGVEVHNAKTKPREEQYNSTYRVVSVLTVLHQDWLNGKEYKCKVSNKALPAPIEKTISKAKGQPREPQVYTLPPSRDELTKNQVSLTCLVKGFYPSDIAVEWESNGQPENNYKTTPPVLDSDGSFFLTSKLTVDKSRWQQGNVFSCSVMHEALHNHYTQKSLCLSPGK
notes: Biparatopic heterodimer; also called #666
B2: D10 E10-hFc (S239C + S442C), mixed linkers (D10 - [G4S]1, E10 - [G4S]3) (Fc fusion)
chain 1: B1 chain 1
chain 2: QVQLVESGGGLVQAGGSLRLSCAVSGRALSDYNIGWFRQAPGKEREFVARKTWDGSSTRYDDSVKGRFTVSIEDAKNTAYLQMSSLKTEDTAVYYCAAGRYSRARGWEYDYWGQGTQVTVSSGGGGSGGGGSGGGGSEPKSSDKTHTCPPCPAPELLGGPCVFLFPPKPKDTLMISRTPEVTCVVVDVSHEDPEVKFNWYVDGVEVHNAKTKPREEQYNSTYRVVSVLTVLHQDWLNGKEYKCKVSNKALPAPIEKTISKAKGQPREPQVYTLPPSRDELTKNQVSLTCLVKGFYPSDIAVEWESNGQPENNYKTTPPVLDSDGSFFLTSKLTVDKSRWQQGNVFSCSVMHEALHNHYTQKSLCLSPGK
notes: Biparatopic heterodimer; also called #704
B3: D10 E06-hFc (S239C + S442C), mixed linkers (D10 - [G4S]1, E06 - [G4S]3) (Fc fusion)
chain 1: B1 chain 1
chain 2: QVHLVESGGGLVQAGGSLRLSCAASRRSFSEYAMGWFRQAPGKEREFVAAIGWSGVIEYADSVKGRFTISRDNAKDTVYLQMNSLKPEDTAVYYCAAGLGIRVVSQTPAYWGQGTQVTVSSGGGGSGGGGSGGGGSEPKSSDKTHTCPPCPAPELLGGPCVFLFPPKPKDTLMISRTPEVTCVVVDVSHEDPEVKFNWYVDGVEVHNAKTKPREEQYNSTYRVVSVLTVLHQDWLNGKEYKCKVSNKALPAPIEKTISKAKGQPREPQVYTLPPSRDELTKNQVSLTCLVKGFYPSDIAVEWESNGQPENNYKTTPPVLDSDGSFFLTSKLTVDKSRWQQGNVFSCSVMHEALHNHYTQKSLCLSPGK
notes: Biparatopic heterodimer; also called #703
B4: D10 A06-hFc (S239C + S442C), mixed linkers (D10 - [G4S]1, A06 - [G4S]3) (Fc fusion)
chain 1: B1 chain 1
chain 2: QVHLVESGGGLVQAGGSLRLSCAASGRTFLSMGWFRQAPGKEREFVAAISWTGGSTGYADSVKGRFTISRESDKETMYLQMNSLKPEDTAVYYCAARGDVYYGGDDATRYKYWGQGTQVTVSSGGGGSGGGGSGGGGSEPKSSDKTHTCPPCPAPELLGGPCVFLFPPKPKDTLMISRTPEVTCVVVDVSHEDPEVKFNWYVDGVEVHNAKTKPREEQYNSTYRVVSVLTVLHQDWLNGKEYKCKVSNKALPAPIEKTISKAKGQPREPQVYTLPPSRDELTKNQVSLTCLVKGFYPSDIAVEWESNGQPENNYKTTPPVLDSDGSFFLTSKLTVDKSRWQQGNVFSCSVMHEALHNHYTQKSLCLSPGK
notes: Biparatopic heterodimer; also called #702
B5: D10 E10-hFc (S239C + S442C), [G4S]1 linkers (Fc fusion)
chain 1: B1 chain 1
chain 2: QVQLVESGGGLVQAGGSLRLSCAVSGRALSDYNIGWFRQAPGKEREFVARKTWDGSSTRYDDSVKGRFTVSIEDAKNTAYLQMSSLKTEDTAVYYCAAGRYSRARGWEYDYWGQGTQVTVSSGGGGSEPKSSDKTHTCPPCPAPELLGGPCVFLFPPKPKDTLMISRTPEVTCVVVDVSHEDPEVKFNWYVDGVEVHNAKTKPREEQYNSTYRVVSVLTVLHQDWLNGKEYKCKVSNKALPAPIEKTISKAKGQPREPQVYTLPPSRDELTKNQVSLTCLVKGFYPSDIAVEWESNGQPENNYKTTPPVLDSDGSFFLTSKLTVDKSRWQQGNVFSCSVMHEALHNHYTQKSLCLSPGK
notes: Biparatopic heterodimer; also called #668
B6: A06 E10-hFc (S239C + S442C), [G4S]1 linkers (Fc fusion)
chain 1: B1 chain 2 with T279Y, T320Y
chain 2: B5 chain 2
notes: Biparatopic heterodimer
B7: D10 E06-hFc (S239C + S442C), [G4S]1 linkers (Fc fusion)
chain 1: B1 chain 1
chain 2: QVHLVESGGGLVQAGGSLRLSCAASRRSFSEYAMGWFRQAPGKEREFVAAIGWSGVIEYADSVKGRFTISRDNAKDTVYLQMNSLKPEDTAVYYCAAGLGIRVVSQTPAYWGQGTQVTVSSGGGGSEPKSSDKTHTCPPCPAPELLGGPCVFLFPPKPKDTLMISRTPEVTCVVVDVSHEDPEVKFNWYVDGVEVHNAKTKPREEQYNSTYRVVSVLTVLHQDWLNGKEYKCKVSNKALPAPIEKTISKAKGQPREPQVYTLPPSRDELTKNQVSLTCLVKGFYPSDIAVEWESNGQPENNYKTTPPVLDSDGSFFLTSKLTVDKSRWQQGNVFSCSVMHEALHNHYTQKSLCLSPGK
notes: Biparatopic heterodimer
B8: A06 E06-hFc (S239C + S442C), [G4S]1 linkers (Fc fusion)
chain 1: B1 chain 2 with T279Y, T320Y
chain 2: B7 chain 2
notes: Biparatopic heterodimer; also called #671
B9: A06 F05-hFc (S239C + S442C), [G4S]1 linkers (Fc fusion)
chain 1: B1 chain 2 with T279Y, T320Y
chain 2: B5 chain 2 with V24A, L29F, S30G, K51R, E73D, D74N, S84N, A104V
B10: D10 F05-hFc (S239C + S442C), [G4S]1 linkers (Fc fusion)
chain 1: B1 chain 1
chain 2: B5 chain 2 with V24A, L29F, S30G, K51R, E73D, D74N, S84N, A104V
notes: Biparatopic heterodimer; also called #669

In this assay the target is T1, Human ALPP (leucine zipper). Nature of the assay: BLI, KD app (antigen immobilised on AR2G sensor). As to the method: Binding kinetics were determined using the Biolayer Interferometry (BLI) Octet K2 or R4 system (Sartorius). […] For KD apparent measurements, the ALPP proteins were immobilised in sodium acetate pH5 buffer to AR2G sensors using amine coupling. To measure 1:1 interactions, AHC biosensors were used to immobilise Fc-fused proteins. All assays were conducted in HBS-EP with a plate temperature of 25° C. Ka (M⁻¹s⁻¹), Kd (s⁻¹) and KD (nM) values were determined using Octet Data Analysis High Throughput software (Sartorius) for Biolayer Interferometry.
(In general: In BLI a coated tip is dipped into the sample, and binding shifts an interference pattern.)
Take B1: the Kd was under 0.01 nM and the association rate constant (kon) (usually the rate constant with which the complex forms) came out at 332000 M⁻¹ s⁻¹.
For B2, in that order: under 0.01 nM and 385000 M⁻¹ s⁻¹.
The molecule B3 returned a Kd of 0.11 nM and a kon of 465000 M⁻¹ s⁻¹.
Molecule B4 registered a Kd of under 0.01 nM and an on-rate constant (kon) of 343000 M⁻¹ s⁻¹.
The molecule B5 showed a Kd of under 0.01 nM and a kon of 374000 M⁻¹ s⁻¹.
The molecule B6 registered an on-rate (kon) of 516000 M⁻¹ s⁻¹.
Molecule B7 displayed a Kd of 0.048 nM and a kon of 271000 M⁻¹ s⁻¹.
Regarding B8, the Kd worked out at 0.0202 nM and the kon worked out at 602000 M⁻¹ s⁻¹.
Turning to B9, the on-rate constant (kon) is 422000 M⁻¹ s⁻¹.
For the molecule B10, the Kd was under 0.01 nM; the off-rate (koff) – broadly, the first-order rate constant of dissociation – is under 1e-07 s⁻¹; the kon was 430000 M⁻¹ s⁻¹.

These data come from patent US20260216242A1 (ALMAC DISCOVERY, published 2026).
